# Non-standard residues stand in square brackets, D forms with d. No end group written: not given here. Ala(4-thiazolyl) = N[C@@H](Cc1cscn1)C(=O)O; 1Nal = N[C@@H](Cc1cccc2ccccc12)C(=O)O; Phg = N[C@H](C(=O)O)c1ccccc1; Nle = CCCC[C@H](N)C(=O)O
# B1: SEQ ID NO: 10 (peptide)
# peptide: [Ala(4-thiazolyl)]SQGTFTSD[Phg]SKQLESRRAQEFIEWLLATGPESGAPPPS-OH
# modifications: N-terminus assumed
# SMILES: CC[C@H](C)[C@H](NC(=O)[C@H](Cc1ccccc1)NC(=O)[C@H](CCC(=O)O)NC(=O)[C@H](CCC(N)=O)NC(=O)[C@H](C)NC(=O)[C@H](CCCNC(=N)N)NC(=O)[C@H](CCCNC(=N)N)NC(=O)[C@H](CO)NC(=O)[C@H](CCC(=O)O)NC(=O)[C@H](CC(C)C)NC(=O)[C@H](CCC(N)=O)NC(=O)[C@H](CCCCN)NC(=O)[C@H](CO)NC(=O)[C@@H](NC(=O)[C@H](CC(=O)O)NC(=O)[C@H](CO)NC(=O)[C@@H](NC(=O)[C@H](Cc1ccccc1)NC(=O)[C@@H](NC(=O)CNC(=O)[C@H](CCC(N)=O)NC(=O)[C@H](CO)NC(=O)[C@@H](N)Cc1cscn1)[C@@H](C)O)[C@@H](C)O)c1ccccc1)C(=O)N[C@@H](CCC(=O)O)C(=O)N[C@@H](Cc1c[nH]c2ccccc12)C(=O)N[C@@H](CC(C)C)C(=O)N[C@@H](CC(C)C)C(=O)N[C@@H](C)C(=O)N[C@H](C(=O)NCC(=O)N1CCC[C@H]1C(=O)N[C@@H](CCC(=O)O)C(=O)N[C@@H](CO)C(=O)NCC(=O)N[C@@H](C)C(=O)N1CCC[C@H]1C(=O)N1CCC[C@H]1C(=O)N1CCC[C@H]1C(=O)N[C@@H](CO)C(=O)O)[C@@H](C)O
# B2: SEQ ID NO: 11 (peptide)
# peptide: [Ala(4-thiazolyl)]SQGTFTSD[1Nal]SKQLESRRAQEFIEWLLATGPESGAPPPS-OH
# modifications: N-terminus assumed
# SMILES: CC[C@H](C)[C@H](NC(=O)[C@H](Cc1ccccc1)NC(=O)[C@H](CCC(=O)O)NC(=O)[C@H](CCC(N)=O)NC(=O)[C@H](C)NC(=O)[C@H](CCCNC(=N)N)NC(=O)[C@H](CCCNC(=N)N)NC(=O)[C@H](CO)NC(=O)[C@H](CCC(=O)O)NC(=O)[C@H](CC(C)C)NC(=O)[C@H](CCC(N)=O)NC(=O)[C@H](CCCCN)NC(=O)[C@H](CO)NC(=O)[C@H](Cc1cccc2ccccc12)NC(=O)[C@H](CC(=O)O)NC(=O)[C@H](CO)NC(=O)[C@@H](NC(=O)[C@H](Cc1ccccc1)NC(=O)[C@@H](NC(=O)CNC(=O)[C@H](CCC(N)=O)NC(=O)[C@H](CO)NC(=O)[C@@H](N)Cc1cscn1)[C@@H](C)O)[C@@H](C)O)C(=O)N[C@@H](CCC(=O)O)C(=O)N[C@@H](Cc1c[nH]c2ccccc12)C(=O)N[C@@H](CC(C)C)C(=O)N[C@@H](CC(C)C)C(=O)N[C@@H](C)C(=O)N[C@H](C(=O)NCC(=O)N1CCC[C@H]1C(=O)N[C@@H](CCC(=O)O)C(=O)N[C@@H](CO)C(=O)NCC(=O)N[C@@H](C)C(=O)N1CCC[C@H]1C(=O)N1CCC[C@H]1C(=O)N1CCC[C@H]1C(=O)N[C@@H](CO)C(=O)O)[C@@H](C)O
# B3: SEQ ID NO: 12 (peptide)
# peptide: [Ala(4-thiazolyl)]SQGTFTSDLSKQLESRRAQEFIEWLLATGPESGAPPPS-OH
# modifications: N-terminus assumed
# SMILES: CC[C@H](C)[C@H](NC(=O)[C@H](Cc1ccccc1)NC(=O)[C@H](CCC(=O)O)NC(=O)[C@H](CCC(N)=O)NC(=O)[C@H](C)NC(=O)[C@H](CCCNC(=N)N)NC(=O)[C@H](CCCNC(=N)N)NC(=O)[C@H](CO)NC(=O)[C@H](CCC(=O)O)NC(=O)[C@H](CC(C)C)NC(=O)[C@H](CCC(N)=O)NC(=O)[C@H](CCCCN)NC(=O)[C@H](CO)NC(=O)[C@H](CC(C)C)NC(=O)[C@H](CC(=O)O)NC(=O)[C@H](CO)NC(=O)[C@@H](NC(=O)[C@H](Cc1ccccc1)NC(=O)[C@@H](NC(=O)CNC(=O)[C@H](CCC(N)=O)NC(=O)[C@H](CO)NC(=O)[C@@H](N)Cc1cscn1)[C@@H](C)O)[C@@H](C)O)C(=O)N[C@@H](CCC(=O)O)C(=O)N[C@@H](Cc1c[nH]c2ccccc12)C(=O)N[C@@H](CC(C)C)C(=O)N[C@@H](CC(C)C)C(=O)N[C@@H](C)C(=O)N[C@H](C(=O)NCC(=O)N1CCC[C@H]1C(=O)N[C@@H](CCC(=O)O)C(=O)N[C@@H](CO)C(=O)NCC(=O)N[C@@H](C)C(=O)N1CCC[C@H]1C(=O)N1CCC[C@H]1C(=O)N1CCC[C@H]1C(=O)N[C@@H](CO)C(=O)O)[C@@H](C)O
# B4: SEQ ID NO: 15 (peptide)
# peptide: [Ala(4-thiazolyl)]SQGTFTSDLSKQLESRRAQDFIEWLLATGPESGAPPPS-OH
# modifications: N-terminus assumed
# SMILES: CC[C@H](C)[C@H](NC(=O)[C@H](Cc1ccccc1)NC(=O)[C@H](CC(=O)O)NC(=O)[C@H](CCC(N)=O)NC(=O)[C@H](C)NC(=O)[C@H](CCCNC(=N)N)NC(=O)[C@H](CCCNC(=N)N)NC(=O)[C@H](CO)NC(=O)[C@H](CCC(=O)O)NC(=O)[C@H](CC(C)C)NC(=O)[C@H](CCC(N)=O)NC(=O)[C@H](CCCCN)NC(=O)[C@H](CO)NC(=O)[C@H](CC(C)C)NC(=O)[C@H](CC(=O)O)NC(=O)[C@H](CO)NC(=O)[C@@H](NC(=O)[C@H](Cc1ccccc1)NC(=O)[C@@H](NC(=O)CNC(=O)[C@H](CCC(N)=O)NC(=O)[C@H](CO)NC(=O)[C@@H](N)Cc1cscn1)[C@@H](C)O)[C@@H](C)O)C(=O)N[C@@H](CCC(=O)O)C(=O)N[C@@H](Cc1c[nH]c2ccccc12)C(=O)N[C@@H](CC(C)C)C(=O)N[C@@H](CC(C)C)C(=O)N[C@@H](C)C(=O)N[C@H](C(=O)NCC(=O)N1CCC[C@H]1C(=O)N[C@@H](CCC(=O)O)C(=O)N[C@@H](CO)C(=O)NCC(=O)N[C@@H](C)C(=O)N1CCC[C@H]1C(=O)N1CCC[C@H]1C(=O)N1CCC[C@H]1C(=O)N[C@@H](CO)C(=O)O)[C@@H](C)O
# B5: SEQ ID NO: 16 (peptide)
# peptide: [Ala(4-thiazolyl)]SQGTFTSDLSKQ[Nle]ESRRAQEFIEWLLATGPESGAPPPS-OH
# modifications: N-terminus assumed
# SMILES: CCCC[C@H](NC(=O)[C@H](CCC(N)=O)NC(=O)[C@H](CCCCN)NC(=O)[C@H](CO)NC(=O)[C@H](CC(C)C)NC(=O)[C@H](CC(=O)O)NC(=O)[C@H](CO)NC(=O)[C@@H](NC(=O)[C@H](Cc1ccccc1)NC(=O)[C@@H](NC(=O)CNC(=O)[C@H](CCC(N)=O)NC(=O)[C@H](CO)NC(=O)[C@@H](N)Cc1cscn1)[C@@H](C)O)[C@@H](C)O)C(=O)N[C@@H](CCC(=O)O)C(=O)N[C@@H](CO)C(=O)N[C@@H](CCCNC(=N)N)C(=O)N[C@@H](CCCNC(=N)N)C(=O)N[C@@H](C)C(=O)N[C@@H](CCC(N)=O)C(=O)N[C@@H](CCC(=O)O)C(=O)N[C@@H](Cc1ccccc1)C(=O)N[C@H](C(=O)N[C@@H](CCC(=O)O)C(=O)N[C@@H](Cc1c[nH]c2ccccc12)C(=O)N[C@@H](CC(C)C)C(=O)N[C@@H](CC(C)C)C(=O)N[C@@H](C)C(=O)N[C@H](C(=O)NCC(=O)N1CCC[C@H]1C(=O)N[C@@H](CCC(=O)O)C(=O)N[C@@H](CO)C(=O)NCC(=O)N[C@@H](C)C(=O)N1CCC[C@H]1C(=O)N1CCC[C@H]1C(=O)N1CCC[C@H]1C(=O)N[C@@H](CO)C(=O)O)[C@@H](C)O)[C@@H](C)CC
# B6: SEQ ID NO: 3 (peptide)
# peptide: [Ala(4-thiazolyl)]SQGTFTSDLSKQ[Nle]ESRRAQDFIEWLLATGPESGAPPPS-OH
# modifications: N-terminus assumed
# SMILES: CCCC[C@H](NC(=O)[C@H](CCC(N)=O)NC(=O)[C@H](CCCCN)NC(=O)[C@H](CO)NC(=O)[C@H](CC(C)C)NC(=O)[C@H](CC(=O)O)NC(=O)[C@H](CO)NC(=O)[C@@H](NC(=O)[C@H](Cc1ccccc1)NC(=O)[C@@H](NC(=O)CNC(=O)[C@H](CCC(N)=O)NC(=O)[C@H](CO)NC(=O)[C@@H](N)Cc1cscn1)[C@@H](C)O)[C@@H](C)O)C(=O)N[C@@H](CCC(=O)O)C(=O)N[C@@H](CO)C(=O)N[C@@H](CCCNC(=N)N)C(=O)N[C@@H](CCCNC(=N)N)C(=O)N[C@@H](C)C(=O)N[C@@H](CCC(N)=O)C(=O)N[C@@H](CC(=O)O)C(=O)N[C@@H](Cc1ccccc1)C(=O)N[C@H](C(=O)N[C@@H](CCC(=O)O)C(=O)N[C@@H](Cc1c[nH]c2ccccc12)C(=O)N[C@@H](CC(C)C)C(=O)N[C@@H](CC(C)C)C(=O)N[C@@H](C)C(=O)N[C@H](C(=O)NCC(=O)N1CCC[C@H]1C(=O)N[C@@H](CCC(=O)O)C(=O)N[C@@H](CO)C(=O)NCC(=O)N[C@@H](C)C(=O)N1CCC[C@H]1C(=O)N1CCC[C@H]1C(=O)N1CCC[C@H]1C(=O)N[C@@H](CO)C(=O)O)[C@@H](C)O)[C@@H](C)CC
# Molecular target: T1, human glucagon receptor (human, UniProt P47871 26-477)
# T1 sequence (P47871 26-477): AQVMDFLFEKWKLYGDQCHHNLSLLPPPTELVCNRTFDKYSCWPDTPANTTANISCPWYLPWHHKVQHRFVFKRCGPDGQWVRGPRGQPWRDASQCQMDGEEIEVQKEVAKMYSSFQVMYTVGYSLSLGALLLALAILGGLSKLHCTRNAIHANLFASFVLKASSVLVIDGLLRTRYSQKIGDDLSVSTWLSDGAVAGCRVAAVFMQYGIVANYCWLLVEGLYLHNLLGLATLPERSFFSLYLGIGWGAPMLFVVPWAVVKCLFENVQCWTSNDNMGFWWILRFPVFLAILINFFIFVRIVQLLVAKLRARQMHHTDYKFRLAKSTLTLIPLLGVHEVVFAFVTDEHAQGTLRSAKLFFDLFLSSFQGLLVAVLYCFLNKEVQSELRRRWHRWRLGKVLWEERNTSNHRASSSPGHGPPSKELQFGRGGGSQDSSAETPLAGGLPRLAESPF
# Assay: cell-based or functional assay
row,Binder,"EC50 hGlucagon-R, cAMP formation"
1,B1,0.006 nM
2,B2,0.0009 nM
3,B3,0.001 nM
4,B4,0.0022 nM
5,B5,0.0009 nM
6,B6,0.0018 nM

# Molecular target: T2, human GLP-1 receptor (human, UniProt P43220 24-463)
# Assay: cell-based or functional assay
row,Binder,"EC50 hGLP-1R, cAMP formation"
1,B1,45 nM
2,B2,11.7 nM
3,B3,20 nM
4,B4,34.5 nM
5,B5,19.7 nM
6,B6,44.3 nM

# Molecular target: T1, human glucagon receptor
# Assay: cell-based or functional assay
# Remark: another data set of the same source
row,Binder,"EC50 hGLUC R [pM], cAMP formation"
1,B1,6 pM
2,B2,0.9 pM
3,B3,1 pM
4,B4,2.2 pM
5,B5,0.9 pM
6,B6,1.8 pM

# Molecular target: T2, human GLP-1 receptor
# Assay: cell-based or functional assay
# Remark: another data set of the same source
row,Binder,"EC50 hGLP-1 R [pM], cAMP formation"
1,B1,45000 pM
2,B2,11700 pM
3,B3,20000 pM
4,B4,34500 pM
5,B5,19700 pM
6,B6,44300 pM

# — US20150368311A1 (Sanofi, published 2015)
